Read-outs that look alike come from different tables or passages of the source. Non-standard residues stand in square brackets, D forms with d. Residues, ends and D or L forms follow the SMILES beside them. Primed or numbered codes have the meaning given here. *: point of attachment. DO3A10CM″ = chelating group at the N-terminus (X in the sequence tables); X1 = NC(=O)NNC(=O)[C@@H]1CCCN1C[C@H](Cc1ccc(C(=O)c2ccccc2)cc1)N*; DOTA = O=C(O)CN1CCN(CC(=O)O)CCN(CC(=O)*)CCN(CC(=O)O)CC1; Bpa = N[C@@H](Cc1ccc(C(=O)c2ccccc2)cc1)C(=O)O; d1Nal = N[C@H](Cc1cccc2ccccc12)C(=O)O; d2Nal = N[C@H](Cc1ccc2ccccc2c1)C(=O)O; His(1-Me) = 1-methylhistidine; DO3A10CM = not defined here; Bpa4 = non-natural residue; Amfe4 = not defined here; Hpgly = not defined here; azaGly = NNC(=O)O; Sar = CNCC(=O)O
B1: BRU-2741 (peptide)
peptide: {DO3A10CM″}-[Sar][His(1-Me)]WSH[dR]W[Bpa]P[azaGly]-NH2
B2: BRU-2766 (peptide)
peptide: DO3A10CM-G[d1Nal]HWSH[dR]W[Bpa4]P[azaGly]-NH2
modifications: reading uncertain; also: printed as DO3A10CM-Gly-Dnal1-His-Trp-Ser-His-Darg-Trp-Bpa4-Pro-azaGly-NH2
B3: BRU-2756 (peptide)
peptide: DO3A10CM-[Sar][Amfe4]WSH[dR]W[Bpa4]P[azaGly]-NH2
modifications: reading uncertain
B4: BRU-2696 (peptide)
peptide: XXHWSHXWXPX
modifications: N-terminal DO3A10CM; Gly-Abz4 linker before 1; Sar at 1; Darg at 6; Bpa4 at 8; azaGly-NH2 at 10
B5: BRU-2810 (peptide)
peptide: XHWSHXWXPX
modifications: DO3A10CM on N-terminus; AA1 Dafe4; AA6 Darg; AA8 Bpa4; AA10 azaGly-NH2
B6: BRU-2797 (peptide)
peptide: DO3A10CM-G[Hpgly]HWSH[dR]W[Bpa]P[azaGly]-NH2
modifications: reading uncertain
B7: BRU-2757 (peptide)
peptide: XHWSHXWXPX
modifications: N-terminal DO3A10CM; Damfe4 at 1; Darg at 6; Bpa4 at 8; azaGly-NH2 at 10
B8: BRU-2736 (peptide)
peptide: XHWSHXWXPX
modifications: DO3A10CM on N-terminus; AA1 Meala; AA6 Darg; AA8 Bpa4; AA10 azaGly-NH2
B9: BRU-2894 (peptide)
peptide: XHWSHXWXPX
modifications: DO3A10CM on N-terminus; AA1 Dphe; AA6 Darg; AA8 Bpa4; AA10 azaGly-NH2

Key:
[1] = In vitro metabolic stability in mouse liver homogenate at 37° C.; format: in vitro ADME; conditions: for remaining at 1 h, 0.3 mg/mL: female, Tac:NCr:Foxn1nu/nu, mouse, tissue homogenate, pH 7.2
Method: Livers from 10 female Tac:NCr:Foxn1^nu/nu mice were excised, rinsed with ice cold PBS (no Ca^++ or Mg^++) and weighed. The tissues were minced with scissors in Petri dishes on ice with Tris buffered saline (Pierce BupH™ Tris buffered saline packs, #28376; 25 mM Tris, 150 mM NaCl, pH 7.2). After mincing, the tissues were dounce homogenized, and the total volume adjusted with ice cold Tris buffer (4 mL for every gram of excised tissue). The homogenate was centrifuged at ˜4000×g for 10 min at 4° C. The supernatants were aliquoted into Eppendorf tubes on ice (200 and 100 μl volumes) and stored at −80° C. Kidney homogenates were similarly prepared. […] The mixture was centrifuged at 4° C. for 20 min at 20,000×g to precipitate the protein; 10 μL (˜7.6 μCi) of the supernatant was injected into the HPLC for the analysis. […] Peaks at these retention times were also observed in the in vivo plasma sample (FIG. 1). […] After 0 and 60 min, the sample was removed from the incubator, immediately cooled on ice and 2 μL of 10 mM EDTA and 0.2 mL of ice-cooled MeOH were added, mixing after each addition. The proteins in the sample were separated by centrifugation at 14,000 rpm for 20 min. The supernatant was harvested and, in the samples spiked with the ^177Lu-analog, the radioactivity was measured using a Capintec dose calibrator to determine recovery. The sample was then analyzed by HPLC. […] After 0 and 60 min, the sample was removed from the incubator, immediately cooled on ice and 2 μL of 10 mM EDTA and 0.24 mL of ice-cooled methanol was added, mixing after each addition. The proteins in the sample were separated by centrifugation at 14,000 rpm for 20 min. The supernatant was collected and analyzed by LC/MS as described earlier herein.

[2] = system: LHRH binding sites on human ovarian cancer cells (EFO-27);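 note: Cell-associated radioactivity on confluent EFO-27 monolayers in 96-well plates, measured by microplate scintillation counting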
[3] = target: LHRH binding sites on EFO-27 human ovarian cancer cells (human); experiment: competition with [125I-Tyr8]BRU-2477 on EFO-27 cells
[4] = target: LHRH receptor (LHRH binding sites) on EFO-27 human ovarian cancer cells (human); experiment: competition with [125I-Tyr8]BRU-2477 for binding to EFO-27 cells
[5] = target: LHRH receptor (LHRH binding sites) on EFO-27 human ovarian cancer cells (human); experiment: as above; remark: listed apart in the source
[6] = target: LHRH receptor (LHRH binding sites) on EFO-27 human ovarian cancer cells (human); experiment: competition with [125I-Tyr8]BRU-2477, EFO-27 cells
[7] = Table 19: analogs used in the stabilization studies

| Molecule | remaining at 1 h, 0.3 mg/mL [1] | EC50 [3] | EC50 [4] | also measured |
| --- | --- | --- | --- | --- |
| N=C(N)NCCC[C@H](NC(=O)[C@@H](Cc1ccc2ccccc2c1)NC(=O)CN1CCN(CC(=O)O)CCN(CC(=O)O)CCN(CC(=O)O)CC1)C(=O)N[C@@H](Cc1c[nH]c2ccccc12)C(=O)N[C@@H](CO)C(=O)N[C@@H](Cc1c[nH]cn1)C(=O)N[C@H](CCCNC(=N)N)C(=O)N[C@@H](Cc1c[nH]c2ccccc12)C(=O)N[C@@H](Cc1ccc(C(=O)c2ccccc2)cc1)C(=O)N1CCCC[C@H]1C(=O)NNC(N)=O [Lu-BRU-2996] | 71.7 ± 2.9% | – | – | – |
| N=C(N)NCCC[C@@H](NC(=O)[C@H](Cc1c[nH]cn1)NC(=O)[C@H](CO)NC(=O)[C@H](Cc1c[nH]c2ccccc12)NC(=O)[C@H](Cc1c[nH]cn1)NC(=O)[C@@H]1CCC(=O)N1)C(=O)N[C@@H](Cc1c[nH]c2ccccc12)C(=O)N[C@@H](Cc1ccc(O)cc1)C(=O)N1CSC[C@H]1C(=O)NNC(N)=O [BRU-3124] (HELM PEPTIDE1{[Glp].H.W.S.H.[dR].W.Y.[O=C([C@@H]1CSCN1[*:1])[*:2]].[O=C(NN[*:1])[*:2]].[am]}$$$$V2.0) | 38.7 ± 5.9% | – | – | – |
| N=C(N)NCCC[C@@H](NC(=O)[C@H](Cc1c[nH]cn1)NC(=O)[C@H](CO)NC(=O)[C@H](Cc1c[nH]c2ccccc12)NC(=O)[C@H](Cc1c[nH]cn1)NC(=O)[C@@H]1CCC(=O)N1)C(=O)N[C@@H](Cc1c[nH]c2ccccc12)C(=O)N[C@@H](Cc1ccc(O)cc1)C(=O)N1C[C@@H](N)C[C@H]1C(=O)NNC(N)=O [BRU-3123] (HELM PEPTIDE1{[Glp].H.W.S.H.[dR].W.Y.[N[C@H]1C[C@@H](C(=O)[*:2])N([*:1])C1].[O=C(NN[*:1])[*:2]].[am]}$$$$V2.0) | 100% | – | – | EC50 [2, 7]: 990 nM |
| N=C(N)NCCC[C@@H](NC(=O)[C@H](Cc1c[nH]cn1)NC(=O)[C@H](CO)NC(=O)[C@H](Cc1c[nH]c2ccccc12)NC(=O)[C@H](Cc1c[nH]cn1)NC(=O)[C@@H]1CCC(=O)N1)C(=O)N[C@@H](Cc1c[nH]c2ccccc12)C(=O)N[C@@H](Cc1ccc(O)cc1)C(=O)N1CCC[C@H]1C(=O)NNC(N)=O [BRU-2477, pGlu-His-Trp-Ser-His-Darg-Trp-Tyr-Pro-azaGly-NH2, reference compound] (HELM PEPTIDE1{[Glp].H.W.S.H.[dR].W.Y.P.[O=C(NN[*:1])[*:2]].[am]}$$$$V2.0) | 11.9 ± 2.4% | – | – | EC50 ([2]; EFO-27 cells, competition with [125I-Tyr8]BRU-2477, 90 min): 740 nM; EC50 [2, 7]: 840 nM |
| N=C(N)NCCC[C@H](NC(=O)[C@@H](Cc1ccc2ccccc2c1)NC(=O)CN1CCN(CC(=O)O)CCN(CC(=O)O)CCN(CC(=O)O)CC1)C(=O)N[C@@H](Cc1c[nH]c2ccccc12)C(=O)N[C@@H](CO)C(=O)N[C@@H](Cc1c[nH]cn1)C(=O)N[C@H](CCCNC(=N)N)C(=O)N[C@@H](Cc1c[nH]c2ccccc12)C(=O)N[C@@H](Cc1ccc(C(=O)c2ccccc2)cc1)CN1CCC[C@H]1C(=O)NNC(N)=O [BRU-3081] ({DOTA}-[d2Nal]RWSH[dR]W-X1) | – | – | – | EC50 [2, 7]: 300 nM; metabolism in liver homogenate [1]: no metabolism was observed |
| N=C(N)NCCC[C@H](NC(=O)[C@@H](Cc1ccc2ccccc2c1)NC(=O)CN1CCN(CC(=O)O)CCN(CC(=O)O)CCN(CC(=O)O)CC1)C(=O)N[C@@H](Cc1c[nH]c2ccccc12)C(=O)N[C@@H](CO)C(=O)N[C@@H](Cc1c[nH]cn1)C(=O)N[C@H](CCCNC(=N)N)C(=O)N[C@@H](Cc1c[nH]c2ccccc12)C(=O)N[C@@H](Cc1ccc(C(=O)c2ccccc2)cc1)CN1CCC[C@H]1C(=O)NNC(N)=O [Lu-BRU-3081] ({DOTA}-[d2Nal]RWSH[dR]W-X1) | 100% | – | – | – |
| N=C(N)NCCC[C@H](NC(=O)[C@@H](Cc1ccc2ccccc2c1)NC(=O)CN1CCN(CC(=O)O)CCN(CC(=O)O)CCN(CC(=O)O)CC1)C(=O)N[C@@H](Cc1c[nH]c2ccccc12)C(=O)N[C@@H](CO)C(=O)N[C@@H](Cc1c[nH]cn1)C(=O)N[C@H](CCCNC(=N)N)C(=O)N[C@@H](Cc1c[nH]c2ccccc12)C(=O)N[C@@H](Cc1ccc(C(=O)c2ccccc2)cc1)C(=O)N1C[C@H](F)C[C@H]1C(=O)NNC(N)=O [Lu-BRU-2994] | 45.7 ± 1.2% | – | – | EC50 ([2]; Table 22, unit inferred): 600 nM |
| N=C(N)NCCC[C@H](NC(=O)[C@@H](Cc1ccc2ccccc2c1)NC(=O)CN1CCN(CC(=O)O)CCN(CC(=O)O)CCN(CC(=O)O)CC1)C(=O)N[C@@H](Cc1c[nH]c2ccccc12)C(=O)N[C@@H](CO)C(=O)N[C@@H](Cc1c[nH]cn1)C(=O)N[C@H](CCCNC(=N)N)C(=O)N[C@@H](Cc1c[nH]c2ccccc12)C(=O)N[C@@H](Cc1ccc(C(=O)c2ccccc2)cc1)C(=O)N1C[C@H](N)C[C@H]1C(=O)NNC(N)=O [Lu-BRU-2995] | 98.7 ± 0.1% | – | – | – |
| N=C(N)NCCC[C@@H](NC(=O)[C@H](Cc1c[nH]cn1)NC(=O)[C@H](CO)NC(=O)[C@H](Cc1c[nH]c2ccccc12)NC(=O)[C@H](Cc1c[nH]cn1)NC(=O)[C@@H]1CCC(=O)N1)C(=O)N[C@@H](Cc1c[nH]c2ccccc12)C(=O)N[C@@H](Cc1ccc(O)cc1)CN1CCC[C@H]1C(=O)NNC(N)=O [BRU-3122] | 100% | – | – | EC50 [2, 7]: 3130 nM |
| N=C(N)NCCC[C@H](NC(=O)[C@@H](Cc1ccc2ccccc2c1)NC(=O)CN1CCN(CC(=O)O)CCN(CC(=O)O)CCN(CC(=O)O)CC1)C(=O)N[C@@H](Cc1c[nH]c2ccccc12)C(=O)N[C@@H](CO)C(=O)N[C@@H](Cc1c[nH]cn1)C(=O)N[C@H](CCCNC(=N)N)C(=O)N[C@@H](Cc1c[nH]c2ccccc12)C(=O)N[C@@H](Cc1ccc(C(=O)c2ccccc2)cc1)C(=O)N1CC[C@H]1C(=O)NNC(N)=O [Lu-BRU-2993] | 14.9 ± 13.2% | – | – | – |
| N=C(N)NCCC[C@H](NC(=O)[C@@H](Cc1ccc2ccccc2c1)NC(=O)CN1CCN(CC(=O)O)CCN(CC(=O)O)CCN(CC(=O)O)CC1)C(=O)N[C@@H](Cc1c[nH]c2ccccc12)C(=O)N[C@@H](CO)C(=O)N[C@@H](Cc1c[nH]cn1)C(=O)N[C@H](CCCNC(=N)N)C(=O)N[C@@H](Cc1c[nH]c2ccccc12)C(=O)N[C@@H](Cc1ccc(C(=O)c2ccccc2)cc1)C(=O)N1CSC[C@H]1C(N)=O [Lu-BRU-3072] | – | – | – | remaining at 1 h, 0.3 mg/mL ([1]; liver homogenate at 37° C. for 60 min, mean ± SD, n = 3, read-out: % remaining (% of parent remaining)): 98.5 ± 0.2%; Stabilized relative to parent? ([1]; liver homogenate at 37° C. for 60 min, compared to Lu-BRU-2813 or unstabilized peptide): Yes |
| B1 | – | 2990 nM | 2990 nM | – |
| B2 | – | 620 nM | 620 nM | EC50 [5]: 650 nM |
| B3 | – | 280 nM | 280 nM | – |
| B4 | – | – | 440 nM | EC50 [6]: 440 nM; EC50 [5]: 650 nM |
| B5 | – | 980 nM | 980 nM | – |
| B6 | – | 450 nM | 450 nM | EC50 [6]: 450 nM |
| B7 | – | 260 nM | 260 nM | EC50 [6]: 260 nM |
| B8 | – | 1420 nM | 1420 nM | – |
| B9 | – | 2000 nM | 2000 nM | – |
